According to patent US6645728:

T1: kinase-deficient IKKα (K44M), Q60680
T1 chain: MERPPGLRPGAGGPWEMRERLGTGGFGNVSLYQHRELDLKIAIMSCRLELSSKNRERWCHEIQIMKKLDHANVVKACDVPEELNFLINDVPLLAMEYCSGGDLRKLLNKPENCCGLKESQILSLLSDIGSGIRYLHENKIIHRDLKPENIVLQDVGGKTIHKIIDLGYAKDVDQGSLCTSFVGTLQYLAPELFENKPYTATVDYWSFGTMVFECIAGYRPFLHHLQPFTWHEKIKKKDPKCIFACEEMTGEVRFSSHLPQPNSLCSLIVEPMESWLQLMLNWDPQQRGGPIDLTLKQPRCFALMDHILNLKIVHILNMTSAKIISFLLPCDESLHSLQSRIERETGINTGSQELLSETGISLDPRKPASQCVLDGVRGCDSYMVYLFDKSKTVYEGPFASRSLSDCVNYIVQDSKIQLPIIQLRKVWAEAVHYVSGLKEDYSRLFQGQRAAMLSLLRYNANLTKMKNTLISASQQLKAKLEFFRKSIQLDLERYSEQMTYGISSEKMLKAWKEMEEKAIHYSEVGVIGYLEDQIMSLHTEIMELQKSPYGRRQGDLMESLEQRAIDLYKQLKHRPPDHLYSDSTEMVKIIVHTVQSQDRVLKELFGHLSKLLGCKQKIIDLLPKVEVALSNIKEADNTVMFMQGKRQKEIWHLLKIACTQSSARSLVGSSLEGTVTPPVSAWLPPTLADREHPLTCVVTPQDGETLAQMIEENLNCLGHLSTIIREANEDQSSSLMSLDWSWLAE

T2: IKKα (as present in transfected 293 cells)
T2 sequence (O15111 1-745, species assumed, looked up): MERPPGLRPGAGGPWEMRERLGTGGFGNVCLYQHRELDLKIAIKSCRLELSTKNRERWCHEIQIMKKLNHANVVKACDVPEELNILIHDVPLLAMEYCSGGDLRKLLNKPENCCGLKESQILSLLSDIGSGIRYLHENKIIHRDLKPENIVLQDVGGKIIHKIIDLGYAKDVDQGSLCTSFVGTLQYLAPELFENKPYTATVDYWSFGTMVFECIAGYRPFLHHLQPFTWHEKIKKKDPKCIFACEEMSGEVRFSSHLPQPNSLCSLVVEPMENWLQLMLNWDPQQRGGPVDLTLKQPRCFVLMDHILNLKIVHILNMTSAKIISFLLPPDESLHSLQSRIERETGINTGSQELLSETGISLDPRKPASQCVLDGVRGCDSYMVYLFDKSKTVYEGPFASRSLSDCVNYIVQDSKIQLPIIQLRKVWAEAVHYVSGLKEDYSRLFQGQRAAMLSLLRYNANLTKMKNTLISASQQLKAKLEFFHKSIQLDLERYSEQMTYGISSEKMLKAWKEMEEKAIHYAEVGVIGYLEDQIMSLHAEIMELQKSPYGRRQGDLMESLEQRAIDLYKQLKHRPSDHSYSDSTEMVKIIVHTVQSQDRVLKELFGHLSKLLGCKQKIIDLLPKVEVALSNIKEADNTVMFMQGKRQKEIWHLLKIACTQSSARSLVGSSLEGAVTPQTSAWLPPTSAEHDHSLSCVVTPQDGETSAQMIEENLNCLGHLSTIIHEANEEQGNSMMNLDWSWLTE


Assays:
[1] = target: T1, kinase-deficient IKKα (K44M), Q60680
[2] = target: T2, IKKα (as present in transfected 293 …)

Row | Protein | phosphorylation of coimmunoprecipitated IKKα (K44M) in immunocomplex kinase reaction [1] | IKKα activity (in vitro kinase reaction on GST-IκBα (1-62)) [2]
1 | Myc-NIK (protein) MAVMEMACPGAPGSAVGQQKELPKPKEKTPPLGKKQSSVYKLEAVEKSPVFCGKWEILNDVITKGTAKEGSEAGPAAISIIAQAECENSQEFSPTFSERIFIAGSKQYSQSESLDQIPNNVAHATEGKMARVCWKGKRRSKARKKRKKKSSKSLAHAGVALAKPLPRTPEQESCTIPVQEDESPLGAPYVRNTPQFTKPLKEPGLGQLCFKQLGEGLRPALPRSELHKLISPLQCLNHVWKLHHPQDGGPLPLPTHPFPYSRLPHPFPFHPLQPWKPHPLESFLGKLACVDSQKPLPDPHLSKLACVDSPKPLPGPHLEPSCLSRGAHEKFSVEEYLVHALQGSVSSSQAHSLTSLAKTWAARGSRSREPSPKTEDNEGVLLTEKLKPVDYEYREEVHWATHQLRLGRGSFGEVHRMEDKQTGFQCAVKKVRLEVFRAEELMACAGLTSPRIVPLYGAVREGPWVNIFMELLEGGSLGQLVKEQGCLPEDRALYYLGQALEGLEYLHSRRILHGDVKADNVLLSSDGSHAALCDFGHAVCLQPDGLGKSLLTGDYIPGTETHMAPEVVLGRSCDAKVDVWSSCCMMLHMLNGCHPWTQFFRGPLCLKIASEPPPVREIPPSCAPLTAQAIQEGLRKEPIHRVSAAELGGKVNRALQQVGGLKSPWRGEYKEPRHPPPNQANYHQTLHAQPRELSPRAPGPRPAEETTGRAPKLQPPLPPEPPEPNKSPPLTLSKEESGMWEPLPLSSLEPAPARNPSSPERKATVPEQELQQLEIELFLNSLSQPFSLEEQEQILSCLSIDSLSLSDDSEKNPSKASQSSRDTLSSGVHSWSSQAEARSSSWNMVLARGRPTDTPSYFNGVKVQIQSLNGEHLHIREFHRVKVGDIATGISSQIPAAAFSLVTKDGQPVRYDMEVPDSGIDLQCTLAPDGSFAWSWRVKHGQLENRP | wild-type NIK and mutant NIK-S549A and NIK-T552A effectively phosphorylated the coimmunoprecipitated IKKα (K44M) protein in vitro | –
2 | NIK-T559A (protein) MAVMEMACPGAPGSAVGQQKELPKPKEKTPPLGKKQSSVYKLEAVEKSPVFCGKWEILNDVITKGTAKEGSEAGPAAISIIAQAECENSQEFSPTFSERIFIAGSKQYSQSESLDQIPNNVAHATEGKMARVCWKGKRRSKARKKRKKKSSKSLAHAGVALAKPLPRTPEQESCTIPVQEDESPLGAPYVRNTPQFTKPLKEPGLGQLCFKQLGEGLRPALPRSELHKLISPLQCLNHVWKLHHPQDGGPLPLPTHPFPYSRLPHPFPFHPLQPWKPHPLESFLGKLACVDSQKPLPDPHLSKLACVDSPKPLPGPHLEPSCLSRGAHEKFSVEEYLVHALQGSVSSSQAHSLTSLAKTWAARGSRSREPSPKTEDNEGVLLTEKLKPVDYEYREEVHWATHQLRLGRGSFGEVHRMEDKQTGFQCAVKKVRLEVFRAEELMACAGLTSPRIVPLYGAVREGPWVNIFMELLEGGSLGQLVKEQGCLPEDRALYYLGQALEGLEYLHSRRILHGDVKADNVLLSSDGSHAALCDFGHAVCLQPDGLGKSLLTGDYIPGAETHMAPEVVLGRSCDAKVDVWSSCCMMLHMLNGCHPWTQFFRGPLCLKIASEPPPVREIPPSCAPLTAQAIQEGLRKEPIHRVSAAELGGKVNRALQQVGGLKSPWRGEYKEPRHPPPNQANYHQTLHAQPRELSPRAPGPRPAEETTGRAPKLQPPLPPEPPEPNKSPPLTLSKEESGMWEPLPLSSLEPAPARNPSSPERKATVPEQELQQLEIELFLNSLSQPFSLEEQEQILSCLSIDSLSLSDDSEKNPSKASQSSRDTLSSGVHSWSSQAEARSSSWNMVLARGRPTDTPSYFNGVKVQIQSLNGEHLHIREFHRVKVGDIATGISSQIPAAAFSLVTKDGQPVRYDMEVPDSGIDLQCTLAPDGSFAWSWRVKHGQLENRP | failed to phosphorylate the coprecipitating IKKα | the mutant NIK-T559A failed to induce IKKα activity
3 | NIK-S549A (protein) MAVMEMACPGAPGSAVGQQKELPKPKEKTPPLGKKQSSVYKLEAVEKSPVFCGKWEILNDVITKGTAKEGSEAGPAAISIIAQAECENSQEFSPTFSERIFIAGSKQYSQSESLDQIPNNVAHATEGKMARVCWKGKRRSKARKKRKKKSSKSLAHAGVALAKPLPRTPEQESCTIPVQEDESPLGAPYVRNTPQFTKPLKEPGLGQLCFKQLGEGLRPALPRSELHKLISPLQCLNHVWKLHHPQDGGPLPLPTHPFPYSRLPHPFPFHPLQPWKPHPLESFLGKLACVDSQKPLPDPHLSKLACVDSPKPLPGPHLEPSCLSRGAHEKFSVEEYLVHALQGSVSSSQAHSLTSLAKTWAARGSRSREPSPKTEDNEGVLLTEKLKPVDYEYREEVHWATHQLRLGRGSFGEVHRMEDKQTGFQCAVKKVRLEVFRAEELMACAGLTSPRIVPLYGAVREGPWVNIFMELLEGGSLGQLVKEQGCLPEDRALYYLGQALEGLEYLHSRRILHGDVKADNVLLSSDGSHAALCDFGHAVCLQPDGLGKALLTGDYIPGTETHMAPEVVLGRSCDAKVDVWSSCCMMLHMLNGCHPWTQFFRGPLCLKIASEPPPVREIPPSCAPLTAQAIQEGLRKEPIHRVSAAELGGKVNRALQQVGGLKSPWRGEYKEPRHPPPNQANYHQTLHAQPRELSPRAPGPRPAEETTGRAPKLQPPLPPEPPEPNKSPPLTLSKEESGMWEPLPLSSLEPAPARNPSSPERKATVPEQELQQLEIELFLNSLSQPFSLEEQEQILSCLSIDSLSLSDDSEKNPSKASQSSRDTLSSGVHSWSSQAEARSSSWNMVLARGRPTDTPSYFNGVKVQIQSLNGEHLHIREFHRVKVGDIATGISSQIPAAAFSLVTKDGQPVRYDMEVPDSGIDLQCTLAPDGSFAWSWRVKHGQLENRP | wild-type NIK and mutant NIK-S549A and NIK-T552A effectively phosphorylated the coimmunoprecipitated IKKα (K44M) protein in vitro | –
4 | NIK-T552A (protein) MAVMEMACPGAPGSAVGQQKELPKPKEKTPPLGKKQSSVYKLEAVEKSPVFCGKWEILNDVITKGTAKEGSEAGPAAISIIAQAECENSQEFSPTFSERIFIAGSKQYSQSESLDQIPNNVAHATEGKMARVCWKGKRRSKARKKRKKKSSKSLAHAGVALAKPLPRTPEQESCTIPVQEDESPLGAPYVRNTPQFTKPLKEPGLGQLCFKQLGEGLRPALPRSELHKLISPLQCLNHVWKLHHPQDGGPLPLPTHPFPYSRLPHPFPFHPLQPWKPHPLESFLGKLACVDSQKPLPDPHLSKLACVDSPKPLPGPHLEPSCLSRGAHEKFSVEEYLVHALQGSVSSSQAHSLTSLAKTWAARGSRSREPSPKTEDNEGVLLTEKLKPVDYEYREEVHWATHQLRLGRGSFGEVHRMEDKQTGFQCAVKKVRLEVFRAEELMACAGLTSPRIVPLYGAVREGPWVNIFMELLEGGSLGQLVKEQGCLPEDRALYYLGQALEGLEYLHSRRILHGDVKADNVLLSSDGSHAALCDFGHAVCLQPDGLGKSLLAGDYIPGTETHMAPEVVLGRSCDAKVDVWSSCCMMLHMLNGCHPWTQFFRGPLCLKIASEPPPVREIPPSCAPLTAQAIQEGLRKEPIHRVSAAELGGKVNRALQQVGGLKSPWRGEYKEPRHPPPNQANYHQTLHAQPRELSPRAPGPRPAEETTGRAPKLQPPLPPEPPEPNKSPPLTLSKEESGMWEPLPLSSLEPAPARNPSSPERKATVPEQELQQLEIELFLNSLSQPFSLEEQEQILSCLSIDSLSLSDDSEKNPSKASQSSRDTLSSGVHSWSSQAEARSSSWNMVLARGRPTDTPSYFNGVKVQIQSLNGEHLHIREFHRVKVGDIATGISSQIPAAAFSLVTKDGQPVRYDMEVPDSGIDLQCTLAPDGSFAWSWRVKHGQLENRP | wild-type NIK and mutant NIK-S549A and NIK-T552A effectively phosphorylated the coimmunoprecipitated IKKα (K44M) protein in vitro | –
